Assay results reported in publication PMC3376392 (Nature, 2012).

Columns and labels:
NPR3 = target: T1, NPR3 (Arabidopsis thaliana, UniProt Q8L746); experiment: [3H]-SA binding
T1 sequence (Q8L746 1-586): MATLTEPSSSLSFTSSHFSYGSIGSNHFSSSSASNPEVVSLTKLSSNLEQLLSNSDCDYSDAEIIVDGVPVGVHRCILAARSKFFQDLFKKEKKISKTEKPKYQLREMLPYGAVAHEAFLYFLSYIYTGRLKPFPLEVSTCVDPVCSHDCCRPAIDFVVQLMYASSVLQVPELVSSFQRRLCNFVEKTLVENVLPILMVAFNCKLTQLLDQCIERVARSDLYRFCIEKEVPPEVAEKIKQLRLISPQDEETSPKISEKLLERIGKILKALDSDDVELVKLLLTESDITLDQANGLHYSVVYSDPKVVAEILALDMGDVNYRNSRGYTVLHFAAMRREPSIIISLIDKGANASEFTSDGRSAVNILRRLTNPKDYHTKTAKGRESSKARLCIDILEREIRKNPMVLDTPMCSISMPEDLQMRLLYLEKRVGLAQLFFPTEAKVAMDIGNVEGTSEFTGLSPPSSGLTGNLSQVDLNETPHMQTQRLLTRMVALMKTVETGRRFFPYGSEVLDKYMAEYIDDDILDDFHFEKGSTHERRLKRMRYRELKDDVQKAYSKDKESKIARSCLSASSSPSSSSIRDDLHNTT

His-MBP-NPR1 = target: T2, His-MBP-NPR1 (Arabidopsis thaliana, UniProt P93002 1-593); experiment: pull-down
T2 sequence: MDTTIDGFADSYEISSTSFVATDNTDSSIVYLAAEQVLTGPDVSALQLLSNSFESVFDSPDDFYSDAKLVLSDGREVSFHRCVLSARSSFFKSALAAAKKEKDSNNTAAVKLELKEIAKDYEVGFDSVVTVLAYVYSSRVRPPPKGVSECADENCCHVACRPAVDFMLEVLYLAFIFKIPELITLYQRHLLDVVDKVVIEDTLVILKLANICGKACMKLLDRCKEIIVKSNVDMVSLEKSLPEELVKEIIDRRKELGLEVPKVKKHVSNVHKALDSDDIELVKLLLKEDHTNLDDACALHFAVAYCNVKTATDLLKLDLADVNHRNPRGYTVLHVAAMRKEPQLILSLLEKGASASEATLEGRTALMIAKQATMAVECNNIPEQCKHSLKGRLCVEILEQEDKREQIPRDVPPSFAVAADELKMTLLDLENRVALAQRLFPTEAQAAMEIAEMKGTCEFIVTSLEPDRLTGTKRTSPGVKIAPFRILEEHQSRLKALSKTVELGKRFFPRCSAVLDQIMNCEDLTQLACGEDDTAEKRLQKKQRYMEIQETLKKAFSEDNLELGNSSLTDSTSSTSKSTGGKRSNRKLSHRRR

SEC = target: the molecule itself; experiment: SEC

O=C(O)c1ccccc1O [SA, Salicylic acid]
Kd (NPR3): 981 nM

B1: GST-NPR4 (natural protein)
chain: MAATAIEPSSSISFTSSHLSNPSPVVTTYHSAANLEELSSNLEQLLTNPDCDYTDAEIIIEEEANPVSVHRCVLAARSKFFLDLFKKDKDSSEKKPKYQMKDLLPYGNVGREAFLHFLSYIYTGRLKPFPIEVSTCVDSVCAHDSCKPAIDFAVELMYASFVFQIPDLVSSFQRKLRNYVEKSLVENVLPILLVAFHCDLTQLLDQCIERVARSDLDRFCIEKELPLEVLEKIKQLRVKSVNIPEVEDKSIERTGKVLKALDSDDVELVKLLLTESDITLDQANGLHYAVAYSDPKVVTQVLDLDMADVNFRNSRGYTVLHIAAMRREPTIIIPLIQKGANASDFTFDGRSAVNICRRLTRPKDYHTKTSRKEPSKYRLCIDILEREIRRNPLVSGDTPTCSHSMPEDLQMRLLYLEKRVGLAQLFFPAEANVAMDVANVEGTSECTGLLTPPPSNDTTENLGKVDLNETPYVQTKRMLTRMKALMKTVETGRRYFPSCYEVLDKYMDQYMDEEIPDMSYPEKGTVKERRQKRMRYNELKNDVKKAYSKDKVARSCLSSSSPASSLREALENPT
binding result (His-MBP-NPR1): binds

B2: purified recombinant NPR4 protein (natural protein)
chain: MAATAIEPSSSISFTSSHLSNPSPVVTTYHSAANLEELSSNLEQLLTNPDCDYTDAEIIIEEEANPVSVHRCVLAARSKFFLDLFKKDKDSSEKKPKYQMKDLLPYGNVGREAFLHFLSYIYTGRLKPFPIEVSTCVDSVCAHDSCKPAIDFAVELMYASFVFQIPDLVSSFQRKLRNYVEKSLVENVLPILLVAFHCDLTQLLDQCIERVARSDLDRFCIEKELPLEVLEKIKQLRVKSVNIPEVEDKSIERTGKVLKALDSDDVELVKLLLTESDITLDQANGLHYAVAYSDPKVVTQVLDLDMADVNFRNSRGYTVLHIAAMRREPTIIIPLIQKGANASDFTFDGRSAVNICRRLTRPKDYHTKTSRKEPSKYRLCIDILEREIRRNPLVSGDTPTCSHSMPEDLQMRLLYLEKRVGLAQLFFPAEANVAMDVANVEGTSECTGLLTPPPSNDTTENLGKVDLNETPYVQTKRMLTRMKALMKTVETGRRYFPSCYEVLDKYMDQYMDEEIPDMSYPEKGTVKERRQKRMRYNELKNDVKKAYSKDKVARSCLSSSSPASSLREALENPT
stoichiometry N (SEC): ~4
